Drawing on publication PMC9482650, “Quantitative fragmentomics allow affinity mapping of interactomes” (Nature Communications, 2022), this text covers pKd for four molecules.

Holding throughout (assay): holdup assay
Common to all, as to design: key: below the threshold = too weak to quantify, mostly under pKd 3.1 to 4
Holding throughout (conditions): plain residues with an end cap or a label only (N-terminal biotin on a linker: ado-ado)

For test [1], the target named is FRMPD2_2, Q68DX3.
Test [2] addresses Inadl_3, Q8NI35.
In test [3] the target is FRMPD3, Q5JV73.
FRMPD3, Q5JV73, sequence (Q5JV73 12-100): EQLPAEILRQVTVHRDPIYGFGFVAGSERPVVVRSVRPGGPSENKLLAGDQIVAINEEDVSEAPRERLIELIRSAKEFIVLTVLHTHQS
Test [4] addresses T1, MPDZ_10, O75970.
T1 sequence (O75970 1624-1722, limits assumed, looked up): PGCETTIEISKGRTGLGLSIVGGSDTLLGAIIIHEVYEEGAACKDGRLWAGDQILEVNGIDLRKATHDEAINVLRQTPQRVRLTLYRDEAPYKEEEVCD

Test [5] addresses T2, LNX2_2, Q8N448.
T2 sequence (Q8N448 334-432, limits assumed, looked up): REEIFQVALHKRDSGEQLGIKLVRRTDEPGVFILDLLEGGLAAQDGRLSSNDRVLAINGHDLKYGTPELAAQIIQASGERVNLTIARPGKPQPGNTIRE

Test [6] has as its target DLG1_2, Q12959.
In test [7] the target is PTPN3, P26045.
PTPN3, P26045, sequence (P26045 505-587): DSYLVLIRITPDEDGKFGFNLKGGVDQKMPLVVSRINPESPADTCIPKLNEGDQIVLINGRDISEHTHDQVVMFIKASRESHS
The target in test [8] is T3, PDZRN3_1, Q9UPQ7.
T3 sequence (Q9UPQ7 244-349, limits assumed, looked up): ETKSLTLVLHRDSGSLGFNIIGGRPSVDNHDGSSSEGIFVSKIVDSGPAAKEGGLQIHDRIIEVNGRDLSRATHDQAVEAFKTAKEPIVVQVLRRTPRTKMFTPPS

Test [9] deals with T4, NHERF3_4, Q5T2W1.
T4 sequence (Q5T2W1 373-468, limits assumed, looked up): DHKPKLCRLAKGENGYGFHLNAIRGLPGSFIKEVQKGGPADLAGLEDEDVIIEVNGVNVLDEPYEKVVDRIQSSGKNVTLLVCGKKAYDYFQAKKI

Test [10] deals with SNX27, Q96L92.
Test [11] deals with T5, RAPGEF6, Q8TEU7.
T5 sequence (Q8TEU7 525-625, limits assumed, looked up): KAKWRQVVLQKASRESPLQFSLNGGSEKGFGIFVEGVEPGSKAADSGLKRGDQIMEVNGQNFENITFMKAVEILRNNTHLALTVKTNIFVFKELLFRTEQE

The target of test [12] is MAST2, Q6P0Q8.
MAST2, Q6P0Q8, sequence (Q6P0Q8 1099-1202): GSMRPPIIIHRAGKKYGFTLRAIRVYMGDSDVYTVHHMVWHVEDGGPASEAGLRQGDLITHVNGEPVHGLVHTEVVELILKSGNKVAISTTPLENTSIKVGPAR
The target of test [13] is T6, SIPA1L2, Q9P2F8.
T6 sequence (Q9P2F8 945-1036, limits assumed, looked up): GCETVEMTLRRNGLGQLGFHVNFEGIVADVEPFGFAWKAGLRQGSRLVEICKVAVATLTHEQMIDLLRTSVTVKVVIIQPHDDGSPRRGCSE

Test [14] has as its target T7, LIN7A, O14910.
T7 sequence (O14910 103-200, limits assumed, looked up): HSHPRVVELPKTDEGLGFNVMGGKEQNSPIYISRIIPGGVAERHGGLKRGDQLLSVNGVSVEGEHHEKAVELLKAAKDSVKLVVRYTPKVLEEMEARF

For test [15], the target named is T8, LIN7B, Q9HAP6.
T8 sequence (Q9HAP6 88-185, limits assumed, looked up): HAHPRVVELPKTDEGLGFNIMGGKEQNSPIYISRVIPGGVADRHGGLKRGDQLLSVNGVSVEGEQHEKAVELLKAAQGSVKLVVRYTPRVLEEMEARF

Test [16] addresses LNX1_2, Q8TBB1.
Test [17] concerns the target DLG4_2, P78352.
Test [18] addresses SCRIB_2, Q14160.
In test [19] the target is T9, PDZD7_3, Q9H5P4.
T9 sequence (Q9H5P4 857-944, limits assumed, looked up): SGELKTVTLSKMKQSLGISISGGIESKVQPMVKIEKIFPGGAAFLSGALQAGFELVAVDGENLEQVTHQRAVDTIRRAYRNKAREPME

Test [20] addresses T10, TIAM2, Q8IVF5.
T10 sequence (Q8IVF5 885-986, limits assumed, looked up): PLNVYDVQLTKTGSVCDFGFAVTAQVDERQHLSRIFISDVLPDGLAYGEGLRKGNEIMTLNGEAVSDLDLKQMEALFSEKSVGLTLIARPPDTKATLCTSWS

The target in test [21] is T11, FRMPD1, Q5SYB0.
T11 sequence (Q5SYB0 52-145, limits assumed, looked up): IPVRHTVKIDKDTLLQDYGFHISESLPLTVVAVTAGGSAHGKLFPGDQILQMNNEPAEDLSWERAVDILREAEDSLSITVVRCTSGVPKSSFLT

Test [22] deals with T12, DFNB31_1, Q9P202.
T12 sequence (Q9P202 135-233, limits assumed, looked up): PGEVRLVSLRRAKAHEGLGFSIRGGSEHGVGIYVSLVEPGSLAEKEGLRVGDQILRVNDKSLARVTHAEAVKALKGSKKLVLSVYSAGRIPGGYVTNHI

The target of test [23] is T13, SYNJ2BP, P57105.
T13 sequence (P57105 8-110, limits assumed, looked up): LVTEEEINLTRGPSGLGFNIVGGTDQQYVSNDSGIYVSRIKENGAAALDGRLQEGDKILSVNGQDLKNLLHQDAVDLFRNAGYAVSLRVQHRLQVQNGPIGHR

The target of test [24] is HTRA1, Q92743.
HTRA1, Q92743, sequence (Q92743 360-477): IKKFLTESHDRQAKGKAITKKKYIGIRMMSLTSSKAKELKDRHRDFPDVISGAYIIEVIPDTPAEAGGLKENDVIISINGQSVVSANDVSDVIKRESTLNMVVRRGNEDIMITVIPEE

Inadl_3, Q8NI35, sequence (Q8NI35 359-469): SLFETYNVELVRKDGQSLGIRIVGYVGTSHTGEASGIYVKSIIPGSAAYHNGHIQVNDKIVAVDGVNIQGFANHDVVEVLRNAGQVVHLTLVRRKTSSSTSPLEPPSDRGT
LNX1_2, Q8TBB1, sequence (Q8TBB1 371-470): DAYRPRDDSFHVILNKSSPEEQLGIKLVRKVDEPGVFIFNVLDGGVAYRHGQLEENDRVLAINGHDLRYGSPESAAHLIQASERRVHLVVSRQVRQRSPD
DLG1_2, Q12959, sequence (Q12959 314-412): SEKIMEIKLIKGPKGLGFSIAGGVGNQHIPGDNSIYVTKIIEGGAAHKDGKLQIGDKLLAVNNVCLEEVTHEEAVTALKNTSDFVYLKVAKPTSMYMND
FRMPD2_2, Q68DX3, sequence (Q68DX3 944-1038): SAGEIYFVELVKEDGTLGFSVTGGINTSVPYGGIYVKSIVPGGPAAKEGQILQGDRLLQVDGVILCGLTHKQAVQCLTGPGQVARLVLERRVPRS
SCRIB_2, Q14160, sequence (Q14160 857-960): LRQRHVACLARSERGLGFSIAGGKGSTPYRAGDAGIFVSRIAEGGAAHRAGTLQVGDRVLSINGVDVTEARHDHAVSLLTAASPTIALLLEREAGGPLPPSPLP
DLG4_2, P78352, sequence (P78352 155-259): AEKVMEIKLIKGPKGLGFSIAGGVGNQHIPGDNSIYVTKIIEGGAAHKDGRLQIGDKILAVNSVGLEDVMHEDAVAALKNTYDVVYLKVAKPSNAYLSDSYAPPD

B1: TTC24, A2A3L6 (peptide)
chain: PMESGICTIV
As a reminder, the pKd is the negative decadic logarithm of the Kd, by convention in mol/L. B1: the negative logarithm of the Kd (pKd) in [1] is 4.29; in test [2], 4.65; in [3], “below the threshold”; in test [4] it was 3.76; in test [5], 5.56; in test [6], 5.2. Also, the pKd in test [7] was 3.75; in test [8], 3.48; in test [9], “below the threshold”; in test [10], 4.63; in test [11], “below the threshold”; in test [12], 5.23. The pKd result was “below the threshold” in test [13]; “below the threshold” in test [14]; “below the threshold” in [15]; 4.37 in test [16]; 4.95 in [17]; “below the threshold” in test [18]. Also, the pKd in [19] is 5.23; in [20], “below the threshold”; in test [21], “below the threshold”; in test [22], 3.65; in test [23] it was 3.79; in test [24], 5.07.

B2: ADGRE5, P48960 (peptide)
chain: RALRASESGI
For B2, the pKd result in test [1], in [2], in test [3], in [4], in test [5] and in test [6] was “below the threshold” each time. The pKd in test [7] is 4.13; in test [8], “below the threshold”; in test [9], “below the threshold”; in test [10], “below the threshold”; in test [11] it was “below the threshold”; in test [12], 3.82. In addition, the pKd entry was “below the threshold” in test [13]; “below the threshold” in test [14]; 3.62 in [15]; “below the threshold” in test [16]; “below the threshold” in test [17]; “below the threshold” in [18]. Also, the pKd entry in test [19] was “below the threshold”; in test [20], “below the threshold”; in test [21], “below the threshold”; in test [22] it was 3.65; in [23], 3.79; in test [24], “below the threshold”.

B3: GRIP1, Q9Y3R0 (peptide)
chain: LETREPTNTL
For the molecule B3, the pKd entry in [1], in test [2], in [3], in test [4], in [5] and in test [6] was “below the threshold” in each case. In addition, the pKd result in test [7] was “below the threshold”; in test [8], “below the threshold”; in [9] it was “below the threshold”; in test [10], “below the threshold”; in [11], “below the threshold”; in test [12], 3.92. For the same molecule, the pKd result in test [13], in [14], in test [15], in [16], in [17] and in [18] was “below the threshold” throughout. Moreover, the pKd entry in test [19] is “below the threshold”; in test [20], “below the threshold”; in [21], “below the threshold”; in [22] it was “below the threshold”; in test [23] it was “below the threshold”; in [24], 3.5.

B4: GLA, P06280 (peptide)
chain: TMQMSLKDLL
Turning to B4, the pKd entry in test [1], in test [2], in test [3], in test [4], in test [5] and in [6] was “below the threshold” each time. Also, the pKd was 4.07 in test [7]; 3.49 in test [8]; “below the threshold” in test [9]; “below the threshold” in test [10]; 3.69 in [11]; 4.19 in [12]. The pKd result in test [13] was “below the threshold”; in test [14], “below the threshold”; in [15], 3.65; in test [16], “below the threshold”; in test [17], 3.64; in test [18], “below the threshold”. The pKd result in [19] was “below the threshold”; in [20], “below the threshold”; in test [21], “below the threshold”; in test [22], “below the threshold”; in test [23] it was “below the threshold”; in test [24], 3.74.
